Biological target: Snf1 protein tagged with 3 copies of the HA epitope (wild type) (S. cerevisiae) (UniProt P06782)
Experiment: co-IP

UniProt P06782, sequence (P06782 whole entry): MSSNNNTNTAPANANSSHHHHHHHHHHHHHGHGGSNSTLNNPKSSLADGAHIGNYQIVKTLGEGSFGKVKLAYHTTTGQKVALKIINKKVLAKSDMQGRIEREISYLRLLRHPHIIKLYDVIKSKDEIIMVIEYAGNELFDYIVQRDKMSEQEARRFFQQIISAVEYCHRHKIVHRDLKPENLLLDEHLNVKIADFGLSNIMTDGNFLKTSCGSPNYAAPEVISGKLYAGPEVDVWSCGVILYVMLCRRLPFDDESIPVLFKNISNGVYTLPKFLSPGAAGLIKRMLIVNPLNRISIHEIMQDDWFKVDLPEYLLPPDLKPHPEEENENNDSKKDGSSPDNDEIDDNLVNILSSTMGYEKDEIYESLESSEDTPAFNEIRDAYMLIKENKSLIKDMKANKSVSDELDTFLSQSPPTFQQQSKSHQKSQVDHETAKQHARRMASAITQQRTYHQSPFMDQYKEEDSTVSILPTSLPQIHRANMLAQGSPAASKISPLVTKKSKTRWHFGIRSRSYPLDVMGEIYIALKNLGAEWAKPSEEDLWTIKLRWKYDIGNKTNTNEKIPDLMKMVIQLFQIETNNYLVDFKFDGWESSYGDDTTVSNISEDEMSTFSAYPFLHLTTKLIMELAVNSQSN

fold reduction of associated Reg1 against wild type Reg1: 30 fold
Substance: Reg1-IF (I466M, F468A) (from UniProt Q00816 1-1014) (natural protein)

Source: PMC2860547
